The supplement of paper PMC7125110
± gives the standard error. Variants at the floor of the assay were thinned out.

B1: glmS ribozyme (parent)
chain: AUAAAAGCGCCAGAACUACAGAAAUGUAGUUGACGAGGAGGAGGUUUAUCGAAUUUUCGGCGGAUGCCUCCAAA

Key:
Conditions in all cases: with glucosamine-6-phosphate
glucosamine-6-phosphate [1] = variants of: B1; assay: self-cleavage kobs at 640 uM GlcN6P; higher = faster cleavage; RNA array
How it was run: (§1)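 Ribozyme variants carrying barcodes were transcribed in situ on sequenced MiSeq chips by E. coli RNA polymerase and tracked at 37 °C with a hybridised Cy3 probe. They were exposed to 40 μM to 10 mM glucosamine-6-phosphate in HEPES/KCl/Mg(OAc)2 buffer. kobs came from exponential decay fits of normalised per-tile medians, and kcat and KM from weighted Michaelis–Menten fits.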

glucosamine-6-phosphate [2] = variants of: B1; assay: self-cleavage kobs at 2500 uM GlcN6P; higher = faster cleavage; RNA array
How it was run: as §1

glucosamine-6-phosphate [3] = variants of: B1; assay: self-cleavage kobs at 10000 uM GlcN6P; higher = faster cleavage; RNA array
How it was run: as §1

| Variant | self-cleavage kobs at 640 uM GlcN6P (glucosamine-6-phosphate [1]) | self-cleavage kobs at 2500 uM GlcN6P (glucosamine-6-phosphate [2]) | self-cleavage kobs at 10000 uM GlcN6P (glucosamine-6-phosphate [3]) |
| --- | --- | --- | --- |
| AUAAAAGCGCCAGAACUACAGAAAUGUAAUUGGCGAGGAGGAGGUUUAUCGAAUUUUCGGCGGAUGCCACCAAA [G29A A33G U69A] | 5.13e-05 ± 2.3e-05 s⁻¹ | 4.9e-05 ± 1.9e-05 s⁻¹ | – |
| AUAAAAGCGCCAGAACUACAGAAAUGUAAUUGACGAGGAGGAGGUUUUUCGAAUUUUCGGCCGAUGCCUCCAAA [G29A A48U G62C] | < 1e-05 s⁻¹ | – | – |
| AUAAAAGCGCCAGAACUACAGAAAUGUAUUUGACGAGGAGGAGGUUAAUCGAAUUUUCGGCGGUUGCCUCCAAA [G29U U47A A64U] | < 1e-05 s⁻¹ | – | – |
| AUAAAAGCGCCAGAACUACAGAAAUGUAAUUGACGAGGAGGAGGCGUAUCGACUUUUCGGCGGAUGGCGCCAAA [G29A U45C U46G A53C C67G U69G] | < 1e-05 s⁻¹ | < 1e-05 s⁻¹ | – |
| AUAAAAGCGCCAGAACUACAGAAAUGUAAUUGACGAGCAGGAGGUUUAUCGAAUUUUCGGCGGAUGCCUACAAA [G29A G38C C70A] | 6.65e-05 ± 3.1e-05 s⁻¹ | – | – |
| AUAAAAGCGCCAGAACUACAGAAAUGUAUUUGUCGAGGAGGACGUUUAUCGAAUUUUCGCCUGAUGCCUCGAAA [G29U A33U G43C G60C G62U C71G] | < 1e-05 s⁻¹ | < 1e-05 s⁻¹ | – |
| AUAAAAGCGCCAGAACUACAGAAAUGUACUUGGCGAGGAAGAGGUUUAUCGAAUUCUCGGCGGAUGCCUCCAAA [G29C A33G G40A U56C] | < 1e-05 s⁻¹ | – | – |
| AUAAAAGCGCCAGAACUACAGAAAUGUAUUUGACGAGGAGGAGGGUUAUCGAAUUUUCGGCGGACGCCUCCAAA [G29U U45G U65C] | < 1e-05 s⁻¹ | < 1e-05 s⁻¹ | – |
| AUAAAAGCGCCAGAACUACAGAAAUGUAAUUGUCGAGGAGGAGUUUUAUCGAAUUUUCGGCGGAUGCCUCCAAA [G29A A33U G44U] | < 1e-05 s⁻¹ | – | – |
| AUAAAAGCGCCAGAACUACAGAAAUGUAAUUGACGAGGAGGAGGUUGAUCGAGUUUUCGGUGGAAGCCUCCAAA [G29A U47G A53G C61U U65A] | < 1e-05 s⁻¹ | – | – |
| AUAAAAGCGCCAGAACUACAGAAAUGUAAACGACGAGGAGGAGGUUUAUCGAAUUUUCGGCGGAUGCCUCCAAA [G29A U30A U31C] | 0.000152 ± 2.2e-05 s⁻¹ | 0.000309 ± 6.5e-05 s⁻¹ | – |
| AUAAAAGCGCCAGAACUACAGAAAUGUACUUGACGAGGAGGAGGUUUAUCGAGUUUUCGGCGGAUGCAUCCAAA [G29C A53G C68A] | 0.000139 ± 5.9e-05 s⁻¹ | 9.57e-05 ± 3.7e-05 s⁻¹ | – |
| AUAAAAGCGCCAGAACUACAGAAAUGUAUUUGACGAGGAGGGGGCUUAUCGAAUUUUCGGCGGAUGCCUCCAAA [G29U A42G U45C] | 6.45e-05 ± 2.4e-05 s⁻¹ | 0.000107 ± 3.3e-05 s⁻¹ | – |
| AUAAAAGCGCCAGAACUACAGAAAUGUAAUUGACGAGGAAGAGGUUUAUCGAAUUUUCGGCGGGUGCCUCCAAA [G29A G40A A64G] | 5.47e-05 ± 1.8e-05 s⁻¹ | 0.000112 ± 2.1e-05 s⁻¹ | – |
| AUAAAAGCGCCAGAACUACAGAAAUGUAUUUGAUGAGGAGGAGGUUUAUGGAAUUUUCGGCGGAUGCCUUCAAA [G29U C34U C50G C70U] | 0.000136 ± 2.9e-05 s⁻¹ | 8.93e-05 ± 2.5e-05 s⁻¹ | – |
| AUAAAAGCGCCAGAACUACAGAAAUGUACUGGACGUGGAGGAGGUUUAUCGAAUUUUCGGCGGAUGCCUCCAAA [G29C U31G A36U] | < 1e-05 s⁻¹ | – | – |
| AUAAAAGCGCCAGAACUACAGAAAUGUAUUUGAUGAGGAGGAGGUUUAUCGAAUUUUCGGCGGAUGCCUCCAAA [G29U C34U] | < 1e-05 s⁻¹ | – | – |
| AUAAAAGCGCCAGAACUACAGAAAUGUACUUGACGAGGAGGAGGUUUAUCGAGUUUUCGGCGUAUGCCUCCAAA [G29C A53G G63U] | < 1e-05 s⁻¹ | – | – |
| AUAAAAGCGCCAGAACUACAGAAAUGUACUUGACGAGGAGCAGGUUUAUCGAAUUUUCGGCGGAUGCGUCCAAA [G29C G41C C68G] | < 1e-05 s⁻¹ | < 1e-05 s⁻¹ | < 1e-05 s⁻¹ |
| AUAAAAGCGCCAGAACUACAGAAAUGUACUUGACGCGGAGGAGGUUUAUCGAAUUUUCGGAGGAUGCCUCCAAA [G29C A36C C61A] | < 1e-05 s⁻¹ | < 1e-05 s⁻¹ | – |
| AUAAAAGCGCCAGAACUACAGAACUGUAGUUGACGAGGAGGAGGUUGAUCGAAUUUUCGGCGGAUGACUCCAAA [A24C U47G C67A] | 0.000315 ± 7.3e-05 s⁻¹ | 0.000647 ± 0.00024 s⁻¹ | – |
| AUAAAAGCGCCAGAACUACAGAAAUGUAUUUGACGCGGAGGAGUUUUAUCGAAUUUUCGGCGGAUGCCUCCAAA [G29U A36C G44U] | < 1e-05 s⁻¹ | – | < 1e-05 s⁻¹ |
| AUAAAAGCGCCAGAACUACAGAAAUGUAUUUGACGUGGGGGAGGUUUAUCGAAUUUUCGACGGAUGCCUCCAAA [G29U A36U A39G G60A] | < 1e-05 s⁻¹ | – | – |

| Variant | self-cleavage kobs at 640 uM GlcN6P (glucosamine-6-phosphate [1]) | self-cleavage kobs at 2500 uM GlcN6P (glucosamine-6-phosphate [2]) | self-cleavage kobs at 10000 uM GlcN6P (glucosamine-6-phosphate [3]) |
| --- | --- | --- | --- |
| AUAAAAGCGCCAGAACUACAGAAAUGUACUUGACGAGGAAGAGUUUUAUCGAAUUUUCGGCGGGUGCCUCCAAA [G29C G40A G44U A64G] | < 1e-05 s⁻¹ | < 1e-05 s⁻¹ | – |
| AUAAAAGCGCCAGAACUACAGAAAUGUACUUGACGAGGAGGAGGUUUAUCGAAUUUUCGGCGGAUGCCUGCAAA [G29C C70G] | 8e-05 ± 1.4e-05 s⁻¹ | 2.33e-05 ± 8.6e-06 s⁻¹ | 4e-05 ± 1.4e-05 s⁻¹ |
| AUAAAAGCGCCAGAACUACAGAAAUGUACUUGACGAGGAGGAGGUUUAUCGAAUUAUCGGCGGAUGCCUCAAAA [G29C U56A C71A] | 4.27e-05 ± 1.8e-05 s⁻¹ | – | – |
| AUAAAAGCGCCAGAACUACAGAAAUGUACUUGACGAGGGGGAGGUAUAUCGAAUUUUCGGCGGAGGCCUCCAAA [G29C A39G U46A U65G] | 0.000174 ± 6.2e-05 s⁻¹ | 0.000622 ± 0.00019 s⁻¹ | – |
| AUAAAAGCGCCAGAACUACAGACAUGUAGUUGACGAGGAGGAGGUUUAUCGAAUUUUCGGCGGAUGCCACCAAA [A23C U69A] | 0.000292 ± 0.0001 s⁻¹ | 0.000135 ± 2.9e-05 s⁻¹ | 9.83e-05 ± 4.3e-05 s⁻¹ |
| AUAAAAGCGCCAGAACUACAGAAAUGUAAUUGACGAGGAGGAGGUUUAUGGAAUUUUCGGCGGAUGCCUCAAAA [G29A C50G C71A] | 0.000129 ± 3.4e-05 s⁻¹ | 0.000111 ± 2.3e-05 s⁻¹ | – |
| AUAAAAGCGCCAGAACUACAGAAAUGUACUUGUCCAGGAGGAGGUUUAUCGUAUUUUCGGCGGAUGCCUCCAAA [G29C A33U G35C A52U] | < 1e-05 s⁻¹ | < 1e-05 s⁻¹ | – |
| AUAAAAGCGCCAGAACUACAGAAAUGUAAUUUACGAGGAUGAGUUUUAUCGAAUUUUCGGCGGAUGCCUCCAAA [G29A G32U G40U G44U] | < 1e-05 s⁻¹ | < 1e-05 s⁻¹ | – |
| AUAAAAGCGCCAGAACUACAGAAAUGUACGUGACGAGGAGGAGGUUUAUCGAAUUUUCGGCGGAUGCCUUCAAA [G29C U30G C70U] | 0.000861 ± 0.00017 s⁻¹ | – | – |
| AUAAAAGCGCCAGAACUACAGAAAUGUAAUUGACGAGAAGGAGGUUUAUCGAAUUUUCGGCGGAGGCCUCCAAA [G29A G38A U65G] | < 1e-05 s⁻¹ | < 1e-05 s⁻¹ | – |
| AUAAAAGCGCCAGAACUACAGAAAUGUAAUUGACGAGGAGGAAGUUUAUCGAAUUAUCGGCGGAUGCCUCCAAA [G29A G43A U56A] | < 1e-05 s⁻¹ | – | – |
| AUAAAAGCGCCAGAACUACAGAAAUGUAAUUGACCAGGAAGAGGUUUAUCGAAUUUUCGGCGGAUGCCUCCAAA [G29A G35C G40A] | < 1e-05 s⁻¹ | – | – |
| AUAAAAGCGCCAGAACUACAGAAAUGUAUUUGACGAGGAGGAGGUUUAUCAAAUUUUCGGCGGUUGCCGCCAAA [G29U G51A A64U U69G] | 0.000114 ± 3.7e-05 s⁻¹ | 0.000294 ± 9.7e-05 s⁻¹ | – |
| AUAAAAGCGCCAGAACUACAGAAAUGGUGGUGACGAGGAGGAGGUUUAUCGAAUUUUCGGCGGAUGCAUCCAAA [U27G A28U U30G C68A] | < 1e-05 s⁻¹ | < 1e-05 s⁻¹ | – |
| AUAAAAGCGCCAGAACUACAGAAAUGUAAUUGACGAGGAGGAGGUUUAUCGCAUUUGCGGCGGGUGCCUCAAAA [G29A A52C U57G A64G C71A] | < 1e-05 s⁻¹ | – | – |
| AUAAAAGCGCCAGAACUACAGAAAUGUAUUUGACGAAGAGGAGGUUUAACGAAUUUUGGGCUGAUGCCUCCAAA [G29U G37A U49A C58G G62U] | < 1e-05 s⁻¹ | – | – |
| AUAAAAGCGCCAGAACUACAGAAAUGUAUUUGACGAAGAGGAGGUUUAUGGAAUUUUCGGCGGAUGCGUCCAAA [G29U G37A C50G C68G] | 0.000384 ± 0.00016 s⁻¹ | 5.37e-05 ± 1.7e-05 s⁻¹ | – |
| AUAAAAGCGCCAGAACUACAGAAAUGUACUUGACGACGAGGAGGUUUAUCGAAUUUUCGGCGGAUGCGUCCAAA [G29C G37C C68G] | 7.66e-05 ± 3.4e-05 s⁻¹ | – | – |
| AUAAAAGCGCCAGAACUACAGAAAUGUAUUUGUCGAGGAGGAGUUUUAUCGUAUUUUCGGCGGAUGCCUCCAAA [G29U A33U G44U A52U] | < 1e-05 s⁻¹ | – | – |
| AUAAAAGCGCCAGAACUACAGAAAUGUAAUUGACGAGGAGGACGUUUAUCGCAUUUUCGGUGGAUGCCUCCAAA [G29A G43C A52C C61U] | < 1e-05 s⁻¹ | < 1e-05 s⁻¹ | – |
| AUAAAAGCGCCAGAACUACAGAAAUGUAUUUGACGAGGAGCUGGUUUAUCGAAUUUUCGGCGUAUGCCUCCAAA [G29U G41C A42U G63U] | < 1e-05 s⁻¹ | – | – |
| AUAAAAGCGCCAGAACUACAGAAAUGUAUUUGACGAGGAGGAGGUUUUUCGAAUUUUCGGUGGAUGCCUCCAAA [G29U A48U C61U] | < 1e-05 s⁻¹ | – | – |
| AUAAAAGCGCCAGAACUACAGAAAUGUAUUUUACGAGGAGGAGCUUUAUCGAAUUUUCGGCGGACGCCUCCAAA [G29U G32U G44C U65C] | < 1e-05 s⁻¹ | – | – |
